This note sets out measurements from article PMC6827314, “An aldo-keto reductase with 2-keto-L-gulonate reductase activity functions in L-tartaric acid biosynthesis from vitamin C in Vitis vinifera” (The Journal of Biological Chemistry, 2019).

Data set [1] deals with the molecule itself. The data set is described as follows: crystal structure; ligand-free Vv2KGR, space group P2(1), four subunits (chains A-D) in the asymmetric unit, 1.58 Å; crystals from 1.26 M ammonium sulfate, 100 mM sodium acetate/acetic acid pH 4.5, 200 mM NaCl, 16 °C; oligomeric interface analysed with PDBePISA.
Substrate in data set [2]: CC(=O)C(=O)O
The data set is described as follows: purified protein. The data set is classed as biochemical, Vitis vinifera. To be noted: 1 mM NADPH, 100 mM HEPES pH 7.5, 37 °C.

Substrate in data set [3]: O=C(O)C(=O)[C@@H](O)[C@H](O)[C@@H](O)CO
The data set is described as follows: purified protein. The data set is classed as biochemical, Vitis vinifera. The settings on record: 1 mM NADPH, 100 mM HEPES pH 7.5, 37 °C.

Substrate in data set [4]: O=C(O)C(=O)CO
The data set is described as follows: purified protein. Format: biochemical, Vitis vinifera. The settings on record: 1 mM NADPH, 100 mM HEPES pH 7.5, 37 °C.

Substrate in data set [5]: O=CC(=O)O
The data set is described as follows: purified protein. Format: biochemical, Vitis vinifera. To be noted: 1 mM NADPH, 100 mM HEPES pH 7.5, 37 °C.

B1: Vitis vinifera 2-keto-L-gulonate reductase (Vv2KGR) (enzyme, UniProt A5CAL1 1-313, looked up)
chain: MESIGVLLTCPMNPYLEQELDKRFKLFRFWDFPSANDLFREHSNSIRAVVGNSFIGADAQMIEALPKMEIVSSFSVGLDKIDLVRCKEKGIRVTNTPDVLTEDVADLALALILATLRRICESDRYVRSGSWKKGDFKLTTKFTGKSVGIIGLGRIGSAIAKRAEGFSCPISYHSRTEKPGTNYKYYPSVVELASNCQILVVACALTPETRHIINREVINALGPKGVVINIGRGLHVDEPELVSALVEGRLGGAGLDVFENEPNVPEELLAMDNVVLLPHVGSGTVETRKDMADLVLGNLEAHFLNKPLLTPVV
notes: Vv2KGR, Vitis vinifera cv; The forward primer carries an ATG of the NdeI site directly before the gene's own ATG; also called aldo-keto reductase; apo-Vv2KGR; source: E. coli BL21(DE3) pLysS-T1, pET14b, purified (HisTrap FF Crude, HiTrap Q HP, dialysis); not shown: His tag (from the vector pET14b)
Usually stoichiometry N stands for a count of units in the complex or per binding partner. For orientation: Km means the concentration of substrate that gives half-maximal velocity. What is called Vmax is the top rate of the reaction or transport when substrate is in excess. As a reminder, the kcat is the maximal rate divided by the concentration of active sites. Consider B1, for which the “stoichiometry N” value in data set [1] came to 2. Further, the Km in data set [2] was determined as 1371 µM; in data set [3] it was 700 µM; in data set [4] it was 96 µM; in data set [5], 44 µM. For the same protein, the Vmax was 7.54 µmol/min/mg in data set [3], 6.29 µmol/min/mg in data set [4] and 13.8 µmol/min/mg in data set [5]. For the same protein, the kcat in data set [3] amounted to 4.18 s⁻¹; in data set [4], 6.97 s⁻¹; in data set [5] it was 38.3 s⁻¹.
